The series can be described thus: amyloid nucleation score (Sup35N fusion, yeast selection) (log enrichment); library NNK3; higher = more nucleation; inactive = no reads after selection. The procedure, abridged: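 The nucleation score is a DiMSum log enrichment of output over input reads, centred on the mode score of non-aggregating sequences. Sequences under 100 input reads were excluded, and reads came from Illumina sequencing of plasmid inserts. Psi-negative yeast expressing Sup35N fused to peptides of 20 random codons were induced with 100 μM copper sulfate for 24 hours and grown 7 days at 30°C on medium lacking adenine and uracil. Random libraries had three technical output replicates.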

± gives the uncertainty stated by the source.

Regarding SMKSGSATCGIN, the amyloid nucleation score entry was “inactive”. For IAFTNLVKVCGLTGYA the value was “inactive”; for GNLLMYHGIWGTNALEDRYL, “inactive”. On to VHICKWVM, for which the amyloid nucleation score entry was “inactive”. For the substance WGMICIVYCVGIDMWLYVKC, the amyloid nucleation score entry is “inactive”. Consider ICNSY, for which the amyloid nucleation score result is “inactive”. WFRTGLAKNSISSGVGVMCH: the amyloid nucleation score result was “inactive”. Regarding RRMLNAVEMSYRVGKFSFCW, the amyloid nucleation score result is “inactive”. Consider FLFRRLGRSYYKYAV, for which the amyloid nucleation score result is “inactive”.

With FVCFIKLRLVDSRIVTNFQR, the amyloid nucleation score entry was “inactive”. Regarding ISCLDGCFS, the amyloid nucleation score result was “inactive”. Substance GTQLFFYMMCARFKDNL came in with an amyloid nucleation score of 0.195 ± 0.38.

On to RSGLHVEGLRSLHRGKVGPC, for which the amyloid nucleation score result was “inactive”.

TISATLVYQ: the amyloid nucleation score result was “inactive”. As to LFLGLVLAHPPDRVRLSTVL, the amyloid nucleation score entry was “inactive”. On to TPAMYFPIYFSAHGHLYLFY, for which the amyloid nucleation score result was “inactive”.

Regarding AGVIAWVYSSG, the amyloid nucleation score result is “inactive”. For DCCSYRSERA, the amyloid nucleation score result is “inactive”. On to CGLPTVKTYRMEMSYNRLDW, for which the amyloid nucleation score entry was “inactive”. For IFSNRGFQLCWFSYMLSVHT the value was “inactive”; for RTKIAFTRVLFATKLWNETN, “inactive”; for LLSLFFIHPTATRRTKVSRC, “inactive”. With GDFYASGSPVKFVRVGMDEC, the amyloid nucleation score entry was “inactive”. In the case of NGFSTVTSSPGLCFLYRMFI, the amyloid nucleation score result was “inactive”.

As to SYKGLCS, the amyloid nucleation score entry was “inactive”.

For the substance AYADHHYRAGLRFPAGEVYW, the amyloid nucleation score result was “inactive”.

Take VSCDEMHKINFYLKANVVLV: the amyloid nucleation score result was “inactive”. As to SLFINT, the amyloid nucleation score entry was “inactive”. On to FGLYYRLPNNCNKTGNQFTV, for which the amyloid nucleation score entry is “inactive”. The entry for VDGSVNMRALKCINNCVL is “inactive”; for RSHECGGSLMFVKLGCG it is “inactive”; for FYYYDLYYGRVFRDSPYSMS it is “inactive”. As for FQWITSIRSSKKMGCY, the amyloid nucleation score entry was “inactive”. For TSYKKRFCGQYLMLNVNMSW the value was “inactive”; for RTRKQRCHRCVWMLLGDYQR, “inactive”; for RRFVVGYRDLMMRFIVRHGE, 0.403 ± 0.24. Take RNNDDSVLMDMLCMKCRTWL: the amyloid nucleation score entry is “inactive”.

Turning to PLVMGFIRVHCIFRRRFG, the amyloid nucleation score entry was “inactive”. For the substance FSIQSRCAVGWLSIGSVTAR, the amyloid nucleation score result is “inactive”. For NCRLEESGLVTVNCVGYWWD the value was “inactive”; for TRDRCLRFKLVPVYFVWTCG, “inactive”; for FNAKFFSQNMSVWCGVFM, 2.6 ± 0.078.

Take CWIAMCGVVFNDLRMS: the amyloid nucleation score was 2.81 ± 0.071.

Turning to YAGFTQNDNVKLYTGNPFHM, the amyloid nucleation score entry is “inactive”. The figure for VNLHLTVEQLSMLYRTNANV is 1.07 ± 0.14; for FPMDL it is “inactive”; for RYYLGMHFINCMRVRVP it is “inactive”. Turning to ICIFVFFRYWHVVHVT, the amyloid nucleation score entry is “inactive”. For the substance YIWTMWSSSLCVLMGAKGAA, the amyloid nucleation score entry was “inactive”. Turning to VDRFRSQNKFVSNGMSLIRK, the amyloid nucleation score entry is “inactive”.

Take MLVASGDTAENYSTSVYCV: the amyloid nucleation score result was “inactive”. For GAIWERLDIREM the value was “inactive”.

For the substance HGMVRCKSDQACDSMVGCVR, the amyloid nucleation score result is “inactive”. SNLDFMMGINSFRRVKAEPG: the amyloid nucleation score is -0.251 ± 0.57. RDGSQGEFWVLALARLGGTS: the amyloid nucleation score came out at 0.311 ± 0.48. Substance DRPSWNMRSLNFSGQSVR returned an amyloid nucleation score of -0.59 ± 1.4.

In the case of SSRVNKGEVARLVVSIPIIH, the amyloid nucleation score result was “inactive”. For the substance YICLYHLLVWWDRQFRGFNS, the amyloid nucleation score result is “inactive”. On to KMILRFFSI, for which the amyloid nucleation score amounted to 1.52 ± 0.063. As for LTTPVTR, the amyloid nucleation score was -0.169 ± 0.63. On to FCLNYDGGWWCRMSCVYNQG, for which the amyloid nucleation score entry is “inactive”. VLARLQLHFCSMTSDRYGLM gave an amyloid nucleation score of 1.04 ± 0.11. For SCYISNFLSGCKLFMNRFL the value was “inactive”; for SVNWMVSKLRSPNSQGLAIE, “inactive”; for TRSFVRSGAWNSLEGW, 1.16 ± 0.16. Consider LNVYNWKN, for which the amyloid nucleation score entry is “inactive”. Consider VNRKLWGT, for which the amyloid nucleation score result was “inactive”. LKLTHD: the amyloid nucleation score result is “inactive”. Regarding GNFINHT, the amyloid nucleation score result was “inactive”. For the substance NSNNSGTVKFRNIRLYSTSL, the amyloid nucleation score result is “inactive”. In the case of SLFVLCFH, the amyloid nucleation score was 0.717 ± 0.13. The entry for RSHRIF is “inactive”.

For the substance RLGRLTPKMISYRKVWKYWG, the amyloid nucleation score entry is “inactive”. On to ERKCLLCNYHMY, for which the amyloid nucleation score entry is “inactive”. In turn, PLWHTWFGYAE gave an amyloid nucleation score of 0.494 ± 0.24. TGVMRYRCLNLFVASICSVP: the amyloid nucleation score entry is “inactive”. Regarding ACRGLVDVNNWLSGYGIRIG, the amyloid nucleation score result was “inactive”. Regarding SQKEGNKDRPVCVSGNSSCS, the amyloid nucleation score entry is “inactive”. The entry for KSVKARYSDSSMW is “inactive”. As to VGHERTVSLQHCGRRLRWCW, the amyloid nucleation score entry was “inactive”. For WSIMSLNFRVDTHYSVHRYV the value was 1.95 ± 0.099. For the substance HLWVSVVNSTESSMTMA, the amyloid nucleation score entry was “inactive”.

Regarding MTSFVWSCWRHYYRSRIVVV, the amyloid nucleation score result is “inactive”. VGGGSFCFKHRLNGGTDGHV yielded an amyloid nucleation score of 1.11 ± 0.13. The figure for YLVRLVSDITRKNR is 2.37 ± 0.071; for RFSNAMLMCLVTNVSC it is 0.451 ± 0.61; for YYLVYPRNIIMYKGNNFLKP it is 2.24 ± 0.063. Consider LSSLVSFVITQLRLLMKTER, for which the amyloid nucleation score result was “inactive”. For GSCWLDVCQDCKSFSILS the value was “inactive”; for DGCALSMPNYAGNQVVKQRG, “inactive”; for FVLVGL, “inactive”. Regarding VDGATFFISWKIMARDSYRY, the amyloid nucleation score entry was “inactive”. IMHIYYTYSIPLCDRRGRSY gave an amyloid nucleation score of 0.856 ± 0.26. For the substance CFCQVSKANWLNR, the amyloid nucleation score result is “inactive”. In turn, NLTYNTSYAVVDVLRITCNF displayed an amyloid nucleation score of 2.56 ± 0.065. With LGDNLEGNIGLLL, the amyloid nucleation score entry was “inactive”.

As to GVCGVLGFYFDPIITSL, the amyloid nucleation score result is “inactive”. The entry for VAPLANHKASRDSYAYVSGS is “inactive”; for GGQGIYMY it is “inactive”; for ARLEMVFLPSPIFVNRPGNA it is “inactive”.

Consider YAALILGVVQCAGLILFYVI, for which the amyloid nucleation score entry is “inactive”. Take CYQVWPARLSILHARLLGGR: the amyloid nucleation score result is “inactive”. For MSIMVASRLALARNVPLQKV the value was “inactive”; for IWICYWSCRIKAYRLSNFFD, “inactive”; for LQFVMLRTWVLRSRGTQAVT, 0.592 ± 0.21.

Turning to GAFSEDFRESGLFLNVREGE, the amyloid nucleation score entry is “inactive”. As to PLSPFYAAWDYMILCVG, the amyloid nucleation score result is “inactive”. For the substance RFLLDRACLWLRGVI, the amyloid nucleation score entry is “inactive”. For MVFLVVVWFVKNGWKCVYGS, the amyloid nucleation score entry is “inactive”. Turning to SNFVIVSWIVTNVLRM, the amyloid nucleation score was 0.869 ± 0.094.

As for FKGPVDCSVIV, the amyloid nucleation score entry was “inactive”.

The substance KSLSIRFYWVSPWTVVWDSR gave an amyloid nucleation score of 0.872 ± 0.11. Consider LKSGVFFG, for which the amyloid nucleation score result is “inactive”.

In the case of GFSYSWNLFILFGQQICWIW, the amyloid nucleation score result is “inactive”. Regarding VRYRVIHMDTFVS, the amyloid nucleation score stood at 0.933 ± 0.16. For PRIWLVAFQTKTCYPSGGWL the value was -1.47 ± 1.9; for EGSNI, 1.05 ± 0.17; for SLLSRFIEEGASCRCTRDGS, “inactive”. On to GIGLCVGYE, for which the amyloid nucleation score result was “inactive”.

For the substance NIFNCDRGSFFLLYRGIGFY, the amyloid nucleation score entry is “inactive”. For the substance LCHRY, the amyloid nucleation score result is “inactive”. Turning to CLNYSETCSPI, the amyloid nucleation score result is “inactive”. Turning to TGFILLTTTVSAINVYQVYR, the amyloid nucleation score was determined as 2.58 ± 0.056.

With RFMWSLGSTLRWKAWADVTG, the amyloid nucleation score result is “inactive”.

Turning to IYHYIYSASMKLNTHGELMP, the amyloid nucleation score entry was “inactive”. Regarding LSVELCTCGVRPQATYYPQG, the amyloid nucleation score turned out to be 1.31 ± 0.13. GSSCRRINTEYSLAAYQSYE: the amyloid nucleation score result was “inactive”. As for VLGILYSTE, the amyloid nucleation score entry is “inactive”.

Consider DFVTHWSVAMLMI, for which the amyloid nucleation score result was “inactive”. VWSEDIYFCIILRLMDKS: the amyloid nucleation score result was “inactive”. Turning to NNLTEEEMDLAPTVSHYLYK, the amyloid nucleation score result was “inactive”.

For the origin of these results see the supplement of paper PMC12042874.
